Legend:
[1] = molecular target: T1, zif268 DBD R18D/E21N (DN) (UniProt P08046 331-420, R349D;E352N); assay: EMSA (Scatchard x QuMFRA); derived; 30 mM Tris-HCl pH 8.0, 50 mM NaCl, 0.1 mg/ml BSA, 3 mM DTT, 20 uM ZnSO4, 5 ug/ml poly(dI-dC), 1 h on ice; 10% polyacrylamide gel
[2] = molecular target: T2, zif268 DBD R18Q/E21N (QN) (UniProt P08046 331-420, R349Q;E352N); assay: as above
[3] = molecular target: T3, zif268 DBD wild type (RE) (UniProt P08046 331-420); assay: EMSA (Scatchard); 30 mM Tris-HCl pH 8.0, 50 mM NaCl, 0.1 mg/ml BSA, 3 mM DTT, 20 uM ZnSO4, 5 ug/ml poly(dI-dC), 1 h on ice; 10% polyacrylamide gel
[4] = molecular target: T4, zif268 DBD R18Q (QE) (UniProt P08046 331-420, R349Q); assay: as above
[5] = molecular target: T5, zif268 DBD E21N (RN) (UniProt P08046 331-420, E352N); assay: as above
[6] = molecular target: T6, zif268 DBD R18D (DE) (UniProt P08046 331-420, R349D); assay: as above
[7] = molecular target: T3, zif268 DBD wild type (RE); assay: competition EMSA (QuMFRA); 30 mM Tris-HCl pH 8.0, 50 mM NaCl, 0.1 mg/ml BSA, 3 mM DTT, 20 uM ZnSO4, 5 ug/ml poly(dI-dC), 1 h on ice; 10% polyacrylamide gel
[8] = molecular target: T4, zif268 DBD R18Q (QE); assay: as above
[9] = molecular target: T5, zif268 DBD E21N (RN); assay: as above
[10] = molecular target: T1, zif268 DBD R18D/E21N (DN); assay: as above
[11] = molecular target: T2, zif268 DBD R18Q/E21N (QN); assay: as above
[12] = molecular target: T6, zif268 DBD R18D (DE); assay: as above
[13] = molecular target: T3, zif268 DBD wild type (RE); assay: EMSA (Scatchard x QuMFRA); derived; 30 mM Tris-HCl pH 8.0, 50 mM NaCl, 0.1 mg/ml BSA, 3 mM DTT, 20 uM ZnSO4, 5 ug/ml poly(dI-dC), 1 h on ice; 10% polyacrylamide gel
[14] = molecular target: T4, zif268 DBD R18Q (QE); assay: as above
[15] = molecular target: T5, zif268 DBD E21N (RN); assay: as above
[16] = molecular target: T6, zif268 DBD R18D (DE); assay: as above
[17] = molecular target: T1, zif268 DBD R18D/E21N (DN); assay: EMSA (Scatchard); 30 mM Tris-HCl pH 8.0, 50 mM NaCl, 0.1 mg/ml BSA, 3 mM DTT, 20 uM ZnSO4, 5 ug/ml poly(dI-dC), 1 h on ice; 10% polyacrylamide gel
[18] = molecular target: T2, zif268 DBD R18Q/E21N (QN); assay: as above

Binder | Ka [1] | Ka [2] | Ka [3] | Ka [4] | Ka [5] | Ka [6] | binding signal [7] | binding signal [8] | binding signal [9] | binding signal [10] | binding signal [11] | binding signal [12] | Ka [13] | Ka [14] | Ka [15] | Ka [16] | Ka [17] | Ka [18]
Zif_3 (CC) (dsDNA) DNA 1: TCGAGGTCGACGGTATCGCGTGGGCCCTCCACTAGTTCTAGAGCGGCCGCCAC DNA 2: GTGGCGGCCGCTCTAGAACTAGTGGAGGGCCCACGCGATACCGTCGACCTCGA | 3.1 10^6 M-1 | 3.9 10^6 M-1 | 33 10^6 M-1 | 6.4 10^6 M-1 | 33 10^6 M-1 | 4.7 10^6 M-1 | 0.082 Ka relative to CG | 2.17 Ka relative to CG | 0.41 Ka relative to CG | 2.61 Ka relative to CG | 0.53 Ka relative to CG | 1.91 Ka relative to CG | – | – | – | – | – | –
Zif_1 (CG) (dsDNA) DNA 1: TCGAGGTCGACGGTATCGCGTGGGCGCTCCACTAGTTCTAGAGCGGCCGCCAC DNA 2: GTGGCGGCCGCTCTAGAACTAGTGGAGCGCCCACGCGATACCGTCGACCTCGA | 1.2 10^6 M-1 | 7.4 10^6 M-1 | – | – | – | – | – | – | – | – | – | – | 406 10^6 M-1 | 3 10^6 M-1 | 81 10^6 M-1 | 2.5 10^6 M-1 | – | –
Zif_2 (CA) (dsDNA) DNA 1: TCGAGGTCGACGGTATCGCGTGGGCACTCCACTAGTTCTAGAGCGGCCGCCAC DNA 2: GTGGCGGCCGCTCTAGAACTAGTGGAGTGCCCACGCGATACCGTCGACCTCGA | 1.4 10^6 M-1 | 3.5 10^6 M-1 | – | – | – | – | 0.27 Ka relative to CG | 1.5 Ka relative to CG | 0.36 Ka relative to CG | 1.21 Ka relative to CG | 0.49 Ka relative to CG | 1.16 Ka relative to CG | 109 10^6 M-1 | 4.5 10^6 M-1 | 30 10^6 M-1 | 2.8 10^6 M-1 | – | –
Zif_4 (AG) (dsDNA) DNA 1: TCGAGGTCGACGGTATCGCGTGGGAGCTCCACTAGTTCTAGAGCGGCCGCCAC DNA 2: GTGGCGGCCGCTCTAGAACTAGTGGAGCTCCCACGCGATACCGTCGACCTCGA | – | – | – | – | – | – | 0.15 Ka relative to CG | 1.3 Ka relative to CG | 1.29 Ka relative to CG | 14.5 Ka relative to CG | 4.45 Ka relative to CG | 1.48 Ka relative to CG | 63 10^6 M-1 | 3.9 10^6 M-1 | 105 10^6 M-1 | 3.6 10^6 M-1 | 17 10^6 M-1 | 33 10^6 M-1
Zif_5 (AA) (dsDNA) DNA 1: TCGAGGTCGACGGTATCGCGTGGGAACTCCACTAGTTCTAGAGCGGCCGCCAC DNA 2: GTGGCGGCCGCTCTAGAACTAGTGGAGTTCCCACGCGATACCGTCGACCTCGA | 4.8 10^6 M-1 | 18 10^6 M-1 | – | – | – | – | 0.064 Ka relative to CG | 1.36 Ka relative to CG | 0.68 Ka relative to CG | 4.02 Ka relative to CG | 2.47 Ka relative to CG | 2.25 Ka relative to CG | 26 10^6 M-1 | 4 10^6 M-1 | 56 10^6 M-1 | 3.7 10^6 M-1 | – | –
Zif_6 (AC) (dsDNA) DNA 1: TCGAGGTCGACGGTATCGCGTGGGACCTCCACTAGTTCTAGAGCGGCCGCCAC DNA 2: GTGGCGGCCGCTCTAGAACTAGTGGAGGTCCCACGCGATACCGTCGACCTCGA | 14 10^6 M-1 | 21 10^6 M-1 | – | – | – | – | 0.041 Ka relative to CG | 1.93 Ka relative to CG | 0.94 Ka relative to CG | 11.8 Ka relative to CG | 2.78 Ka relative to CG | 3.08 Ka relative to CG | 16 10^6 M-1 | 5.7 10^6 M-1 | 77 10^6 M-1 | 5.5 10^6 M-1 | – | –

From PMC1184061
